Results taken from article PMC2610409.

Biological target: RAD18-CFP (human) (UniProt Q9NS91)
Assay: FRET or BRET

Chain of UniProt Q9NS91 (Q9NS91 whole entry): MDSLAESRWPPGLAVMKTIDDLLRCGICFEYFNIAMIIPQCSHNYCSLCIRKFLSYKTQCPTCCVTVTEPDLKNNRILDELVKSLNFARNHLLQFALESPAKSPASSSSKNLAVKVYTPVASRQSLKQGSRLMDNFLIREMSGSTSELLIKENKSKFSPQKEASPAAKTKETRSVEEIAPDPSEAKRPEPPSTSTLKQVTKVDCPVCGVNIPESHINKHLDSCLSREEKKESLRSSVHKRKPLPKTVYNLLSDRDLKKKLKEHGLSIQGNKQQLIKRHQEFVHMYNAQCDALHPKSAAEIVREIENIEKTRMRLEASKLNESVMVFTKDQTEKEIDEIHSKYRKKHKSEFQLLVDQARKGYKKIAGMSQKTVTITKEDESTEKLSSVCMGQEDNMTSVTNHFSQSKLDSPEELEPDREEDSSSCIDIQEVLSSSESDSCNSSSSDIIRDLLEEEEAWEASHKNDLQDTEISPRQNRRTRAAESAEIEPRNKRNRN

FRET efficiency: 72%
Substance: RAD6A-YFP (from UniProt P49459 1-152) (natural protein)
